Results as given in PMC11341859.

How the values were obtained:
[1] = target: LY1 ORF1 ΔC-term (1-609) (Betatorquevirus isolate LY1 (TTMV-LY1)); test: cryo-EM structure; Expi293-derived ΔC-term virus-like particles, 0.4 mg/ml, Titan Krios 300 kV, 2.69 Å
[2] = target: LY1 ΔARM fragment (ORF1 with residues 2-45 deleted, C-terminus removed by proteolysis in insect cells) (Betatorquevirus isolate LY1 (TTMV-LY1)); test: cryo-EM structure; Sf9-derived ΔARM fragment virus-like particles, 0.3 mg/ml on graphene oxide grid, Glacios 200 kV, I1 symmetry, 3.9 Å

LY1 ORF1 ΔC-term (1-609) (domain or fragment)
stoichiometry N [1]: 60

LY1 ΔARM fragment (ORF1 with residues 2-45 deleted, C-terminus removed by proteolysis in insect cells) (domain or fragment)
stoichiometry N [2]: 60
